Assay results reported in article PMC7736860.

Tests used:
Experiment in all cases: EMSA
Details in all cases: Chemiluminescent EMSA kit (Beyotime); buffer, salt, pH and temperature not stated
[1] = target: T1, BTF3 (Arabidopsis thaliana) (UniProt Q9SMW7)
T1 sequence: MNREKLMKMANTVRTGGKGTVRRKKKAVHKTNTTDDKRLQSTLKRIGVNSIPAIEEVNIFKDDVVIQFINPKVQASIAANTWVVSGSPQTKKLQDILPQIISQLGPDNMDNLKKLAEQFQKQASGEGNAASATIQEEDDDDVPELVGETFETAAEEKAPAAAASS

[2] = target: T2, HAT1 (Arabidopsis thaliana) (UniProt P46600)
T2 sequence: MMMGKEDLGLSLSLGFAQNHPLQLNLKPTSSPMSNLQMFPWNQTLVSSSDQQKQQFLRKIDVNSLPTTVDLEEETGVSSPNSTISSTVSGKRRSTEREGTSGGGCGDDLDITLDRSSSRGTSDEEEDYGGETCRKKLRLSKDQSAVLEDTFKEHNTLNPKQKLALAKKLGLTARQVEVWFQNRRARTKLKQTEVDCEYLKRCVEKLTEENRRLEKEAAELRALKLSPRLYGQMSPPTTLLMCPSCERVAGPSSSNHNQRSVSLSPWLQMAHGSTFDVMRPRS

[3] = target: T3, TEM1 (TEMPRANILLO1) (Arabidopsis thaliana) (UniProt Q9C6M5)
T3 sequence: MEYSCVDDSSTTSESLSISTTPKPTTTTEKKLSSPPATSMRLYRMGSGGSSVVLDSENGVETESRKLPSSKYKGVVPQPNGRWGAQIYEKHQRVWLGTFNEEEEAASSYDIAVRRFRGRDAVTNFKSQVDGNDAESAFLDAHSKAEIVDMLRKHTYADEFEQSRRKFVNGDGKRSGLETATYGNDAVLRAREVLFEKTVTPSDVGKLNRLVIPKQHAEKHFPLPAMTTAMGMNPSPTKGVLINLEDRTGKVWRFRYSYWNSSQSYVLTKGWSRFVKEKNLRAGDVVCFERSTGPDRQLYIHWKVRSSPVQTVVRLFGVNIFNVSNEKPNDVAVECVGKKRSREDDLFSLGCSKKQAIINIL

[4] = target: T4, bHLH106 (Arabidopsis thaliana) (UniProt O80674)
T4 sequence: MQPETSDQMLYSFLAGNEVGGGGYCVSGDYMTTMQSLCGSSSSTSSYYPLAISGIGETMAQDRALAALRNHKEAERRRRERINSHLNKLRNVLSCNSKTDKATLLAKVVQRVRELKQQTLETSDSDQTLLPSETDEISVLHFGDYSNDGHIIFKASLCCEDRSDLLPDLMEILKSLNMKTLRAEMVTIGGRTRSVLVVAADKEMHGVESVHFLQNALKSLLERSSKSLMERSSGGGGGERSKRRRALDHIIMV

[5] = target: T5, bZIP1664 (Arabidopsis thaliana) (UniProt F4I978)
T5 sequence: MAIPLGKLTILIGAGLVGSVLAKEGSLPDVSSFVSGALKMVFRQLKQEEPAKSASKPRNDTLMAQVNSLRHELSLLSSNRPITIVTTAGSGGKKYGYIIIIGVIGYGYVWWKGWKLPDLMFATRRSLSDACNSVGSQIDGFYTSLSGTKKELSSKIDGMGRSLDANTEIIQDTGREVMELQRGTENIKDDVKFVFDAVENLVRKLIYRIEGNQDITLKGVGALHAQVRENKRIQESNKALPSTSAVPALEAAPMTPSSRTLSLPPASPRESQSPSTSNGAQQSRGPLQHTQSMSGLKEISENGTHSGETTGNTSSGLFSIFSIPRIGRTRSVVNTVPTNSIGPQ

Measured: binding

GTGAAACAGCGTGTGTTATGCACAATAATGGATTCCCGAAGTGGAAGGGTACATTTGTCCTTTCGAGATCAATTTCTCGATACAGTAAAAATGGGCCATTGTTGTTTACTTTTCCTTGGTGTTAAAACAATAATGTAGTGCCCCCACTTAGATATTTTTTTGCTAGGTTTTGGCTCCAACCCAAGAAAAATTCGTTCGGTGACTAATAATAATCGCTGACCCCGA (double strand)
binds: all assays above
